system: Escherichia coli TOP10; test: shrunken log2 fold change of peptide-encoding DNA abundance (4.5 h post-induction vs induction); higher = less antimicrobial activity (less host growth inhibition); conditions: time post-induction: 4.5 h; library: site-saturation at positions 5, 18, 19, 20
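Further: peptides expressed intracellularly from a pBAD plasmid library in pooled LB shake-flask culture, induced with 0.3% L-arabinose, DNA abundance read by NGS, three biological replicates, DESeq2 with apeglm shrinkage.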

Sequence | shrunken log2 fold change
RRIRGRPPRLPRPRPRPEACPRP | 1.11
RRIRSRPPRLPRPRPRPRWPPRP | 0.553
RRIRSRPPRLPRPRPRPNHQPRP | -0.139
RRIRWRPPRLPRPRPRPKEMPRP | 0.476
RRIRRRPPRLPRPRPRPTQCPRP | 0.252
RRIRIRPPRLPRPRPRPAMVPRP | -0.547
RRIRERPPRLPRPRPRPYQKPRP | -0.0207
RRIRYRPPRLPRPRPRPCCYPRP | -0.363
RRIRVRPPRLPRPRPRPVKKPRP | 0.02
RRIRVRPPRLPRPRPRPESCPRP | 0.242
RRIRFRPPRLPRPRPRPDKVPRP | -0.281
RRIRWRPPRLPRPRPRPHSCPRP | -0.0379
RRIRPRPPRLPRPRPRPIKLPRP | -0.0641
RRIRERPPRLPRPRPRPCMFPRP | -0.531
RRIRNRPPRLPRPRPRPIEAPRP | 0.0895
RRIRERPPRLPRPRPRPIMTPRP | -0.714
RRIRHRPPRLPRPRPRPAEMPRP | -0.01
RRIRSRPPRLPRPRPRPKMGPRP | -0.108
RRIRGRPPRLPRPRPRPTHIPRP | 0.255
RRIRERPPRLPRPRPRPLYAPRP | -0.101
RRIRHRPPRLPRPRPRPVGYPRP | 0.00996
RRIRFRPPRLPRPRPRPNGLPRP | -0.0551

Sequence | shrunken log2 fold change
RRIRKRPPRLPRPRPRPGWDPRP | 0.364
RRIRRRPPRLPRPRPRPRTWPRP | 1.84
RRIRKRPPRLPRPRPRPCCWPRP | 1.1
RRIRSRPPRLPRPRPRPIYGPRP | -0.306
RRIRRRPPRLPRPRPRPVKNPRP | 0.148
RRIRLRPPRLPRPRPRPIAMPRP | -0.0743
RRIRKRPPRLPRPRPRPDGVPRP | 0.154
RRIRNRPPRLPRPRPRPDNAPRP | -0.0737
RRIRERPPRLPRPRPRPTMFPRP | -0.724
RRIRGRPPRLPRPRPRPDNMPRP | -0.185
RRIRIRPPRLPRPRPRPHEPPRP | -0.129
RRIRERPPRLPRPRPRPGMLPRP | -0.0705
RRIRFRPPRLPRPRPRPWNLPRP | 0.0325
RRIRDRPPRLPRPRPRPLFRPRP | -0.168
RRIRLRPPRLPRPRPRPIWEPRP | 0.0805
RRIRSRPPRLPRPRPRPFVFPRP | -0.102
RRIRERPPRLPRPRPRPLSPPRP | -0.17
RRIRIRPPRLPRPRPRPFGLPRP | -0.129
RRIRTRPPRLPRPRPRPGYFPRP | -0.0719
RRIRERPPRLPRPRPRPGAYPRP | -0.243
RRIRDRPPRLPRPRPRPTPNPRP | 0.272
RRIRSRPPRLPRPRPRPAMYPRP | -0.184

Sequence | shrunken log2 fold change
RRIRPRPPRLPRPRPRPIEVPRP | -0.113
RRIRPRPPRLPRPRPRPNFLPRP | 0.0421
RRIRERPPRLPRPRPRPSVMPRP | -0.175
RRIRGRPPRLPRPRPRPKKAPRP | -0.0191
RRIRRRPPRLPRPRPRPTQVPRP | 0.677
RRIRSRPPRLPRPRPRPRESPRP | 0.092
RRIRTRPPRLPRPRPRPLEDPRP | -0.163
RRIRGRPPRLPRPRPRPDKMPRP | 0.261
RRIRFRPPRLPRPRPRPTTKPRP | -0.167
RRIRKRPPRLPRPRPRPGGFPRP | 0.223
RRIRIRPPRLPRPRPRPYRPPRP | -0.0527
RRIRTRPPRLPRPRPRPVDTPRP | 0.0439
RRIRNRPPRLPRPRPRPADPPRP | -0.0809
RRIRPRPPRLPRPRPRPKQEPRP | 0.138
RRIRARPPRLPRPRPRPDCKPRP | -0.129
RRIRYRPPRLPRPRPRPWAHPRP | -0.324
RRIRDRPPRLPRPRPRPPQAPRP | 0.268
RRIRCRPPRLPRPRPRPNNSPRP | -0.743
RRIRLRPPRLPRPRPRPWTNPRP | 0.0169
RRIRMRPPRLPRPRPRPGCCPRP | 1.36
RRIRARPPRLPRPRPRPVMIPRP | 0.0471
RRIRIRPPRLPRPRPRPVRIPRP | 0.154

Sequence | shrunken log2 fold change
RRIRKRPPRLPRPRPRPKTKPRP | 0.411
RRIRTRPPRLPRPRPRPSQWPRP | -0.168
RRIRARPPRLPRPRPRPCGPPRP | 0.0702
RRIRDRPPRLPRPRPRPFGHPRP | -0.138
RRIRDRPPRLPRPRPRPEAKPRP | 2.4
RRIRARPPRLPRPRPRPCWIPRP | -0.197
RRIRSRPPRLPRPRPRPWRFPRP | 0.566
RRIRIRPPRLPRPRPRPNTGPRP | -0.663
RRIRWRPPRLPRPRPRPLDLPRP | 0.00678
RRIRSRPPRLPRPRPRPYAGPRP | 0.0441
RRIRIRPPRLPRPRPRPDNCPRP | -0.162
RRIRRRPPRLPRPRPRPKRVPRP | 0.298
RRIRSRPPRLPRPRPRPIQVPRP | 0.0973
RRIRPRPPRLPRPRPRPSQIPRP | -0.112
RRIRERPPRLPRPRPRPACYPRP | -0.308
RRIRFRPPRLPRPRPRPFQWPRP | -0.507
RRIRDRPPRLPRPRPRPWSYPRP | -1.29
RRIRMRPPRLPRPRPRPAGKPRP | 0.461
RRIRIRPPRLPRPRPRPLDWPRP | -0.418
RRIRSRPPRLPRPRPRPHLDPRP | -0.156
RRIRKRPPRLPRPRPRPLWWPRP | 0.477
RRIRMRPPRLPRPRPRPIWSPRP | 0.0584

Sequence | shrunken log2 fold change
RRIRSRPPRLPRPRPRPYMYPRP | -0.466
RRIRYRPPRLPRPRPRPQWKPRP | -0.01
RRIRGRPPRLPRPRPRPPWNPRP | 0.411
RRIRMRPPRLPRPRPRPPYLPRP | 0.204
RRIRCRPPRLPRPRPRPIDYPRP | -0.651
RRIRVRPPRLPRPRPRPECSPRP | -0.091
RRIRMRPPRLPRPRPRPDSLPRP | -0.0169
RRIRARPPRLPRPRPRPNPDPRP | 0.571
RRIRMRPPRLPRPRPRPNLFPRP | 0.124
RRIRDRPPRLPRPRPRPWNCPRP | -0.3
RRIRTRPPRLPRPRPRPEYEPRP | -0.0445
RRIRGRPPRLPRPRPRPLTGPRP | 0.71
RRIRARPPRLPRPRPRPWDGPRP | 0.72
RRIRSRPPRLPRPRPRPTHCPRP | 0.36
RRIRARPPRLPRPRPRPSSCPRP | -0.0288
RRIRWRPPRLPRPRPRPVVLPRP | -0.0385
RRIRCRPPRLPRPRPRPETSPRP | 0.0533
RRIRIRPPRLPRPRPRPSFRPRP | -0.671
RRIRPRPPRLPRPRPRPLYGPRP | 0.0853
RRIRHRPPRLPRPRPRPMITPRP | -0.658
RRIRYRPPRLPRPRPRPCFLPRP | -1

— the supplement of paper PMC9112550, “Optimization of the antimicrobial peptide Bac7 by deep mutational scanning” (BMC Biology, 2022)
